Reference: patent US20160109449A1 (JULIUS MAXIMILIANS UNIVERSITAET WUERZBURG, published 2016)

Assays:
[1] = molecular target: T1, IsaA oligopeptide SEQ ID NO: 31 (Staphylococcus aureus); assay: peptide array on glass slide, fluorescent secondary antibody
T1 sequence (peptide): GQTAGFSNVAGADYT

[2] = molecular target: T2, IsaA oligopeptide SEQ ID NO: 29 (Staphylococcus aureus); assay: as above
T2 sequence (peptide): SWSYEAANGQTAGFS

[3] = molecular target: T3, IsaA oligopeptide SEQ ID NO: 28 (Staphylococcus aureus); assay: as above
T3 sequence (peptide): GTTWSWSYEAANGQT

[4] = molecular target: T4, IsaA oligopeptide SEQ ID NO: 14 (Staphylococcus aureus); assay: as above
T4 sequence (peptide): AGTGHQAHAAEVNVD

[5] = molecular target: T5, IsaA oligopeptide SEQ ID NO: 60 (Staphylococcus aureus); assay: as above
T5 sequence (peptide): GWGPTNTVDQQINAA

[6] = molecular target: T6, IsaA oligopeptide SEQ ID NO: 13 (Staphylococcus aureus); assay: as above
T6 sequence (peptide): TGYAAGTGHQAHAAE

[7] = molecular target: IsaA oligopeptide SEQ ID NO: 40 (Staphylococcus aureus); assay: as above
[8] = molecular target: T7, IsaA oligopeptide SEQ ID NO: 16 (Staphylococcus aureus); assay: as above
T7 sequence (peptide): AAEVNVDQAHLVDLA

[9] = molecular target: T8, IsaA oligopeptide SEQ ID NO: 36 (Staphylococcus aureus); assay: as above
T8 sequence (peptide): GSDVQSVSYNAQSSN

[10] = molecular target: T9, IsaA oligopeptide SEQ ID NO: 30 (Staphylococcus aureus); assay: as above
T9 sequence (peptide): EAANGQTAGFSNVAG

[11] = molecular target: T10, IsaA oligopeptide SEQ ID NO: 26 (Staphylococcus aureus); assay: as above
T10 construct: Synthetic 15-mer of IsaA, spotted on a glass slide
T10 peptide: FQYNFTSNGTTWSWS
Procedure: (§1) Each oligopeptide was immobilized on a small spot on a glass side. Binding of the monoclonal antibodies secreted by the hybridoma cell line DSM ACC2987 and of control antibodies to these spots was examined upon incubation with these antibodies by binding of fluorescence labeled secondary antibodies and detecting fluorescence intensities.

[12] = molecular target: T11, IsaA oligopeptide SEQ ID NO: 59 (Staphylococcus aureus); assay: as above
T11 construct: Synthetic 15-mer of IsaA, spotted on a glass slide
T11 peptide: QTMPGWGPTNTVDQQ
Procedure: as §1

[13] = molecular target: T12, IsaA oligopeptide SEQ ID NO: 32 (Staphylococcus aureus); assay: as above
T12 construct: Synthetic 15-mer of IsaA, spotted on a glass slide
T12 peptide: GFSNVAGADYTTSYN
Procedure: as §1

[14] = molecular target: T13, IsaA oligopeptide SEQ ID NO: 17 (Staphylococcus aureus); assay: as above
T13 construct: Synthetic 15-mer of IsaA, spotted on a glass slide
T13 peptide: NVDQAHLVDLAHNHQ
Procedure: as §1

[15] = molecular target: T14, IsaA oligopeptide SEQ ID NO: 38 (Staphylococcus aureus); assay: as above
T14 construct: Synthetic 15-mer of IsaA, spotted on a glass slide
T14 peptide: YNAQSSNSNVEAVSA
Procedure: as §1

[16] = molecular target: T15, IsaA oligopeptide SEQ ID NO: 22 (Staphylococcus aureus); assay: as above
T15 construct: Synthetic 15-mer of IsaA, spotted on a glass slide
T15 peptide: APIKDGAYDIHFVKD
Procedure: as §1

[17] = molecular target: T16, IsaA oligopeptide SEQ ID NO: 34 (Staphylococcus aureus); assay: as above
T16 construct: Synthetic 15-mer of IsaA, spotted on a glass slide
T16 peptide: DYTTSYNQGSDVQSV
Procedure: as §1

[18] = molecular target: T17, IsaA oligopeptide SEQ ID NO: 27 (Staphylococcus aureus); assay: as above
T17 construct: Synthetic 15-mer of IsaA, spotted on a glass slide
T17 peptide: FTSNGTTWSWSYEAA
Procedure: as §1

[19] = molecular target: T18, IsaA oligopeptide SEQ ID NO: 35 (Staphylococcus aureus); assay: as above
T18 construct: Synthetic 15-mer of IsaA, spotted on a glass slide
T18 peptide: SYNQGSDVQSVSYNA
Procedure: as §1

[20] = molecular target: T19, IsaA oligopeptide SEQ ID NO: 25 (Staphylococcus aureus); assay: as above
T19 construct: Synthetic 15-mer of IsaA, spotted on a glass slide
T19 peptide: VKDGFQYNFTSNGTT
Procedure: as §1

[21] = molecular target: T20, IsaA oligopeptide SEQ ID NO: 46 (Staphylococcus aureus); assay: as above
T20 construct: Synthetic 15-mer of IsaA, spotted on a glass slide
T20 peptide: SNGNTAGATGSSAAQ
Procedure: as §1

[22] = molecular target: T21, IsaA oligopeptide SEQ ID NO: 56 (Staphylococcus aureus); assay: as above
T21 construct: Synthetic 15-mer of IsaA, spotted on a glass slide
T21 peptide: NAYNPSGASGLFQTM
Procedure: as §1

[23] = molecular target: T22, IsaA oligopeptide SEQ ID NO: 52 (Staphylococcus aureus); assay: as above
T22 construct: Synthetic 15-mer of IsaA, spotted on a glass slide
T22 peptide: ASTWAAIIARESNGQ
Procedure: as §1

[24] = molecular target: T23, IsaA oligopeptide SEQ ID NO: 42 (Staphylococcus aureus); assay: as above
T23 construct: Synthetic 15-mer of IsaA, spotted on a glass slide
T23 peptide: TYHNYSTSTTSSSVR
Procedure: as §1

[25] = molecular target: T24, IsaA oligopeptide SEQ ID NO: 48 (Staphylococcus aureus); assay: as above
T24 construct: Synthetic 15-mer of IsaA, spotted on a glass slide
T24 peptide: TGSSAAQIMAQRTGV
Procedure: as §1

[26] = molecular target: T25, IsaA oligopeptide SEQ ID NO: 20 (Staphylococcus aureus); assay: as above
T25 construct: Synthetic 15-mer of IsaA, spotted on a glass slide
T25 peptide: NHQDQLNAAPIKDGA
Procedure: as §1

[27] = molecular target: T26, IsaA oligopeptide SEQ ID NO: 54 (Staphylococcus aureus); assay: as above
T26 construct: Synthetic 15-mer of IsaA, spotted on a glass slide
T26 peptide: ARESNGQVNAYNPSG
Procedure: as §1

[28] = molecular target: T27, IsaA oligopeptide SEQ ID NO: 24 (Staphylococcus aureus); assay: as above
T27 construct: Synthetic 15-mer of IsaA, spotted on a glass slide
T27 peptide: DIHFVKDGFQYNFTS
Procedure: as §1

[29] = molecular target: T28, IsaA oligopeptide SEQ ID NO: 15 (Staphylococcus aureus); assay: as above
T28 construct: Synthetic 15-mer of IsaA, spotted on a glass slide
T28 peptide: HQAHAAEVNVDQAHL
Procedure: as §1

[30] = molecular target: T29, recombinant IsaA protein of Staphylococcus aureus (29 kDa immunodominant antigen IsaA) (Staphylococcus aureus, UniProt Q2FV52 30-233, limits assumed); assay: SPR (BIACORE 2000), biotinylated IsaA on streptavidin chip, antibody as analyte; off rate set to 10^-5 sec^-1; off rate set to 10^-5 sec^-1
T29 construct: Coated as rIsaA in the ELISA; In the first SPR experiment it was N-biotinylated with sulfo-NHS-LC-biotin (mostly at a single site) and immobilised on streptavidin; In the second SPR experiment it was the analyte in solution; also called rIsaA; 29 kDa IsaA antigen
T29 sequence (looked up): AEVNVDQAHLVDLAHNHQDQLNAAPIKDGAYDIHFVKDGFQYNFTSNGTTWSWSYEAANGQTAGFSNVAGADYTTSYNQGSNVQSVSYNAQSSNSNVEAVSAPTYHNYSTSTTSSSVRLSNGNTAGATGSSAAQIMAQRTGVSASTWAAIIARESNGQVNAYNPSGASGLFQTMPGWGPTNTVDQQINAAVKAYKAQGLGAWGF
Procedure: The amount of the immobilized antigen corresponds to about 100 resonance units [RU] measured by means of the BIACORE®2000 system.
Interaction analyses were performed using HBS150 buffer (10 mM HEPES pH7.4, 150 mM NaCl, 3.4 mM EDTA). Sensorgrams were recorded at a flow rate of 10 μl/min at 25° C. The association and dissociation time was set to 10 min. The chips were regenerated after each cycle with different regeneration solutions (A: 1 mM CH₃COOH, 1 M NaCl, pH 3; B: 4 M MgCl₂; C: 1 mM CH₃COOH, 1 M NaCl, 6 M Urea, pH 3) for 2 min.
Since the evaluation of the kinetic rate constant is limited to 10⁻⁵ sec⁻¹ the observed off-rate has to be smaller than that value.

## control antibodies (peptide array) (antibody)
[1]
  Binding (fluorescence intensity): -20
[2]
  Binding (fluorescence intensity): 85.7
[3]
  Binding (fluorescence intensity): 77.3
[4]
  Binding (fluorescence intensity): -35
[5]
  Binding (fluorescence intensity): 18.7
[6]
  Binding (fluorescence intensity): 367
[7]
  Binding (fluorescence intensity): -27
[8]
  Binding (fluorescence intensity): 117
[9]
  Binding (fluorescence intensity): -14.3
[10]
  Binding (fluorescence intensity): -7

B1: monoclonal antibody MAB-UK-66 secreted by hybridoma cell line DSM ACC2987 (antibody, V domains shown)
VH: DVKLVESGGGLVKLGGSLKLSCSASGFTFSNYYMSWVRQTPEKRLELVADINGNGGSTYYPDTVKGRFTISRDNAKNTLYLQMSSLKSEDTALYYCVRRGGYYALDYWGQGTTVTVSS
VL: DVVMTQTPLSLPVSLGDQASISCRSSQSLVHINGNTYLHWYLQKPGQSPKLLIYRVSNRFSGVPDRFSGSGSGTDFTLKISRVEAEDLGVYFCSQSTHVPWTFGGGTKLELKR
notes: Monoclonal mouse antibody from a hybridoma; Detected with anti-mouse IgG; also called antibodies secreted by cell line DSM ACC2987; anti-IsaA MAB
[11]
  Binding (fluorescence intensity): 51800
[12]
  Binding (fluorescence intensity): 1400
[13]
  Binding (fluorescence intensity): 59500
[14]
  Binding (fluorescence intensity): 17700
[15]
  Binding (fluorescence intensity): 975
[16]
  Binding (fluorescence intensity): 21500
[17]
  Binding (fluorescence intensity): 29500
[18]
  Binding (fluorescence intensity): 442
[19]
  Binding (fluorescence intensity): 506
[20]
  Binding (fluorescence intensity): 49300
[21]
  Binding (fluorescence intensity): 587
[22]
  Binding (fluorescence intensity): 959
[23]
  Binding (fluorescence intensity): 285
[24]
  Binding (fluorescence intensity): 579
[25]
  Binding (fluorescence intensity): 1170
[26]
  Binding (fluorescence intensity): 1050
[27]
  Binding (fluorescence intensity): 570
[28]
  Binding (fluorescence intensity): 9360
[29]
  Binding (fluorescence intensity): 11700
[30]
  Kd: ≤ 0.018 nM
  kon: 560000 M⁻¹ s⁻¹
[1]
  Binding (fluorescence intensity): 2940
[2]
  Binding (fluorescence intensity): 2490
[3]
  Binding (fluorescence intensity): 3170
[4]
  Binding (fluorescence intensity): 3190
[5]
  Binding (fluorescence intensity): 3070
[6]
  Binding (fluorescence intensity): 5750
[7]
  Binding (fluorescence intensity): 6010
[8]
  Binding (fluorescence intensity): 1950
[9]
  Binding (fluorescence intensity): 2740
[10]
  Binding (fluorescence intensity): 1670
